Source: article PMC6398471, “The depolymerase activity of MCAK shows a graded response to Aurora B kinase phosphorylation through allosteric regulation” (Journal of Cell Science, 2019)
Changes are numbered by the printed parent chain.

B1: full-length human MCAK (natural protein, UniProt Q99661 1-725, looked up)
chain: MAMDSSLQARLFPGLAIKIQRSNGLIHSANVRTVNLEKSCVSVEWAEGGATKGKEIDFDDVAAINPELLQLLPLHPKDNLPLQENVTIQKQKRRSVNSKIPAPKESLRSRSTRMSTVSELRITAQENDMEVELPAAANSRKQFSVPPAPTRPSCPAVAEIPLRMVSEEMEEQVHSIRGSSSANPVNSVRRKSCLVKEVEKMKNKREEKKAQNSEMRMKRAQEYDSSFPNWEFARMIKEFRATLECHPLTMTDPIEEHRICVCVRKRPLNKQELAKKEIDVISIPSKCLLLVHEPKLKVDLTKYLENQAFCFDFAFDETASNEVVYRFTARPLVQTIFEGGKATCFAYGQTGSGKTHTMGGDLSGKAQNASKGIYAMASRDVFLLKNQPCYRKLGLEVYVTFFEIYNGKLFDLLNKKAKLRVLEDGKQQVQVVGLQEHLVNSADDVIKMIDMGSACRTSGQTFANSNSSRSHACFQIILRAKGRMHGKFSLVDLAGNERGADTSSADRQTRMEGAEINKSLLALKECIRALGQNKAHTPFRESKLTQVLRDSFIGENSRTCMIATISPGISSCEYTLNTLRYADRVKELSPHSGPSGEQLIQMETEEMEACSNGALIPGNLSKEEEELSSQMSSFNEAMTQIRELEEKAMEELKEIIQQGPDWLELSEMTEQPDYDLETFVNKAESALAQQAKHFSALRDVIKALRLAMQLEEQASRQISSKKRPQ
notes: MCAK (Kif2C), human, full length; also called Kif2C; kinesin-13; source: Sf9 insect cells (pFastBac), purified
B2: Aurora B-phosphorylated MCAK-GFP (natural protein, human, UniProt Q99661 1-725, looked up)
chain: B1 chain
modifications: phosphorylated in vitro with Aurora B kinase; the sites modified in this sample are not stated
notes: MCAK (Kif2C), human, full length; Phosphorylation protocol is in Welburn et al., 2010; source: Sf9 insect cells (pFastBac), purified, phosphorylated in vitro with Aurora B kinase; not shown: GFP, C-terminal, kept
B3: MCAKS6E-GFP (natural protein, human, UniProt Q99661 1-725, looked up)
chain: B1 chain with S95E, S109E, S111E, S115E, S166E, S192E
notes: MCAK (Kif2C), human, full length, Aurora B phosphomimetic for six serines in the N-terminus and neck; Site-directed mutagenesis of MCAK-GFP; source: Sf9 insect cells (pFastBac), purified; not shown: GFP, C-terminal, kept
B4: MCAK-GFP (natural protein, human, UniProt Q99661 1-725, looked up)
chain: B1 chain
notes: MCAK (Kif2C), human, full length; also called GFP-tagged MCAK; source: Sf9 insect cells (pFastBac), purified; not shown: GFP, C-terminal, kept
B5: MCAKS2E-GFP (natural protein, human, UniProt Q99661 1-725, looked up)
chain: B1 chain with S166E, S192E
notes: MCAK (Kif2C), human, full length, phosphomimetic in the neck region (Ser192 and Ser166 replaced by glutamate); Site-directed mutagenesis of MCAK-GFP; source: Sf9 insect cells (pFastBac), purified; not shown: GFP, C-terminal, kept

How the values were obtained:
[1] = biological target: Taxol-stabilized microtubules, digoxigenin- and HyLite-647-labeled, P02550;P02554; assay: single-molecule imaging of MCAK-GFP on microtubules; conditions: 32 mM K-PIPES, parent: 6.14e-6
[2] = biological target: the molecule itself; assay: cross-linking; BS3 on MCAK alone: 10 µg MCAK with 20 µg BS3 in 10 mM HEPES pH 7, 200 mM potassium acetate pH 7.6, on ice 1 h; SDS-PAGE, band cut out, mass spectrometry
[3] = biological target: Taxol-stabilized microtubules, digoxigenin- and HyLite-647-labeled (UniProt P02550 1-451; P02554 1-445, 8% of the tubulin digoxigenin-labeled, 3.5% labeled with HyLite-647; chain and residues not stated | 8% of the tubulin digoxigenin-labeled, 3.5% labeled with HyLite-647; chain and residues not stated); assay: single-molecule TIRF microscopy (residence times); microtubules held on the coverslip by anti-DIG antibody; MCAK at 5-100 pM in MRB80 (80 mM K-PIPES pH 6.9, 1 mM EGTA, 4 mM MgCl2) with 1 mM ATP, κ-casein, 40 µM taxol; 23°C; off-rate = 1/τ of a single exponential fit; conditions: both partners purified
Sequence of Taxol-stabilized microtubules, digoxigenin- and HyLite-647-labeled (P02550 whole entry, chain 1 of 2): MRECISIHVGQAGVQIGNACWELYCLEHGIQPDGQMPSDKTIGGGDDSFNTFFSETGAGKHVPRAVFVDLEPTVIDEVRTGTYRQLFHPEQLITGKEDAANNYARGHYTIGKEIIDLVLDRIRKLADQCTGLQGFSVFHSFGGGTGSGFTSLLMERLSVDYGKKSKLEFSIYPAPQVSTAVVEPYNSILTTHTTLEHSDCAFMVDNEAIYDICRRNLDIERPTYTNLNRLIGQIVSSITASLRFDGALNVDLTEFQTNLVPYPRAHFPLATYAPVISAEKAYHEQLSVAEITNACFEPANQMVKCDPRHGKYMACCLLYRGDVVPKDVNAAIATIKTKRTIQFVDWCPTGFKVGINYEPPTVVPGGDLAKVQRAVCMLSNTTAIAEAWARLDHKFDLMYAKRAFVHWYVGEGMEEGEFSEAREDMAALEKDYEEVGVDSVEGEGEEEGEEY
Sequence of Taxol-stabilized microtubules, digoxigenin- and HyLite-647-labeled (P02554 whole entry, chain 2 of 2): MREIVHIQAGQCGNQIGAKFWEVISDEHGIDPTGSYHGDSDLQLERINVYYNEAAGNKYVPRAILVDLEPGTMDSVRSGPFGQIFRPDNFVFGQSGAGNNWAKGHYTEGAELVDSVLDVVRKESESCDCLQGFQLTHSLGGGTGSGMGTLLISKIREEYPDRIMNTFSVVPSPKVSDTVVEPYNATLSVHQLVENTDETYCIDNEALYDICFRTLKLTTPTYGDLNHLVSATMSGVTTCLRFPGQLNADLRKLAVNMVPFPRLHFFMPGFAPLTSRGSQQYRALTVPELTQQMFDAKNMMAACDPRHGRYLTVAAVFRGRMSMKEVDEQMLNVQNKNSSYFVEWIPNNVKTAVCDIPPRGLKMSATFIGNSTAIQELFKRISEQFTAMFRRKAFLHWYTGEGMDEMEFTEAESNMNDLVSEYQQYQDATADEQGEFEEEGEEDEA

Molecule	koff [3]	also measured
MCAK-GFP (from UniProt Q99661) S166E; S192E		kon ([1]; n = 280): 6720 M⁻¹ s⁻¹
MCAK-GFP (from UniProt Q99661) S95E; S109E; S111E; S115E; S166E; S192E		kon ([1]; n = 439): 11000 M⁻¹ s⁻¹
B1		stoichiometry N [2]: 2
B2	23.4 s⁻¹	
B3	25.8 s⁻¹	
B4	1.6 s⁻¹	
B5	3.2 s⁻¹	
